Experimental data reported in patent US20090068214A1.

Target: HLA-A2 on T2 cells, P30376

B1: HPV 16 E2 69-77 peptide (…) (peptide)
peptide: ALQAIELQL
modifications: not checked
Q: With B1 as the binder, how does the peptide concentration at fluorescence index (FI) 0.5 read?
A: 50 µM
